According to patent publication US20240182408A1, “DRIED PRENCSO COMPOSITION” (HOUSE FOODS GROUP INC., priority 2021, published 2024):

Assay: specific activity of LFS
Type: biochemical
Conditions: rLFS used in Examples

B1: rLFS: recombinant lachrymatory factor synthase (E2-3) produced in E. coli, GST tag removed (protein, UniProt P59082 13-169, looked up)
Lachrymatory-factor synthase: DSANGARKWSGKVHALLPNTKPEQAWTLLKDFINLHKVMPSLSVCELVEGEANVVGCVRYVKGIMHPIEEEFWAKEKLVALDNKNMSYSYIFTECFTGYEDYTATMQIVEGPEHKGSRFDWSFQCKYIEGMTESAFTEILQHWATEIGQKIEEVCSA
In the case of B1, the specific activity is reported as 6.0×10^6 area/μg.
